Patent US20220017583A1

Target: amyloid β (1-28) (UniProt P05067)
Assay: trapping on beads in buffer, eluate by MALDI-TOF MS; ratio of detection limits

Chain of UniProt P05067 (P05067 672-699 limits assumed): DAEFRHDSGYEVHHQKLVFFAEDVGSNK

How did the fold sensitivity against the IgG-protein G beads of each kind turn out when 6E10 F(ab′)-PEG24 beads (Fab) was run?
Its fold sensitivity against the IgG-protein G beads of each kind is 5 times.
